In article PMC6511732 one finds stoichiometry N data, which are given here for four substances.

“And” between values parts separate entries of the source, which are not always exact repeats. Equal values may be shown once. Read-outs that look alike come from different tables or passages of the source.

What all share (experiment): native MS
The target in assay [1] is R-phycoerythrin α6β6γ complex.
Another assay concerns the target Phycocyanin α6β6 complex.
Assay [2] concerns the target Phycocyanin α6β6γ complex.
Assay [3] deals with Phycocyanin αβ-heterodimer.
Assay [4] has as its target Phycocyanin αβ-heterodimer. This is another data set of the same source.

Usually stoichiometry N stands for the number of molecules, sites or subunits per partner or assembly. Regarding R-phycoerythrin α6β6γ complex, the stoichiometry N in assay [1] is 2.
The substance Phycocyanin α6β6 complex registered a stoichiometry N with Phycocyanin α6β6 complex of 2.
Take Phycocyanin α6β6γ complex: the stoichiometry N in assay [2] came to 2.
Regarding Phycocyanin αβ-heterodimer (complex), the stoichiometry N was 6 in assay [3]; 3 and 6 in assay [4].
